Data taken from patent US20190315842A1 (DUKE UNIVERSITY, published 2019).
One block for each binder: values may come before it. Where no end group is shown, it is not given here. The star is where a group is joined. Biotin = O=C1N[C@H]2[C@H](CS[C@H]2CCCCC(=O)*)N1

Legend:
[1] = target: T1, 15-mer peptide GPPPPIDNGDITSFP (SEQ ID NO: 114) (human); experiment: assay and antigen not given; Example 10, epitope mapping on the 15-mer peptide
T1 construct: Immobilized for SPR; also called parent peptide
T1 peptide: GPPPPIDNGDITSFP

[2] = target: ribonucleoprotein (RNP); experiment: AtheNA Multi-Lyte ANA, Ab at 16.7 ug/ml
[3] = target: T2, Sm (sphingomyelin); experiment: AtheNA Multi-Lyte ANA, Ab at 16.7 ug/ml
T2 construct: in an ANA panel of nuclear antigens Sm is usually the Smith ribonucleoprotein antigen; Kept, but see recheck

[4] = target: systemic lupus erythematosus autoantigen SSA; experiment: AtheNA Multi-Lyte ANA, Ab at 16.7 ug/ml
[5] = target: T3, Complement Factor H (CFH) protein, full-length (human, UniProt P08603 19-1231); experiment: immunoblot, SDS-PAGE under non-reducing conditions, antibody at 0.5 µg/ml, anti-human IgG-HRP, chemiluminescence; lane numbers as in Table 10
T3 construct: also called full-length CFH; native CFH
T3 sequence (P08603 19-1231 limits assumed): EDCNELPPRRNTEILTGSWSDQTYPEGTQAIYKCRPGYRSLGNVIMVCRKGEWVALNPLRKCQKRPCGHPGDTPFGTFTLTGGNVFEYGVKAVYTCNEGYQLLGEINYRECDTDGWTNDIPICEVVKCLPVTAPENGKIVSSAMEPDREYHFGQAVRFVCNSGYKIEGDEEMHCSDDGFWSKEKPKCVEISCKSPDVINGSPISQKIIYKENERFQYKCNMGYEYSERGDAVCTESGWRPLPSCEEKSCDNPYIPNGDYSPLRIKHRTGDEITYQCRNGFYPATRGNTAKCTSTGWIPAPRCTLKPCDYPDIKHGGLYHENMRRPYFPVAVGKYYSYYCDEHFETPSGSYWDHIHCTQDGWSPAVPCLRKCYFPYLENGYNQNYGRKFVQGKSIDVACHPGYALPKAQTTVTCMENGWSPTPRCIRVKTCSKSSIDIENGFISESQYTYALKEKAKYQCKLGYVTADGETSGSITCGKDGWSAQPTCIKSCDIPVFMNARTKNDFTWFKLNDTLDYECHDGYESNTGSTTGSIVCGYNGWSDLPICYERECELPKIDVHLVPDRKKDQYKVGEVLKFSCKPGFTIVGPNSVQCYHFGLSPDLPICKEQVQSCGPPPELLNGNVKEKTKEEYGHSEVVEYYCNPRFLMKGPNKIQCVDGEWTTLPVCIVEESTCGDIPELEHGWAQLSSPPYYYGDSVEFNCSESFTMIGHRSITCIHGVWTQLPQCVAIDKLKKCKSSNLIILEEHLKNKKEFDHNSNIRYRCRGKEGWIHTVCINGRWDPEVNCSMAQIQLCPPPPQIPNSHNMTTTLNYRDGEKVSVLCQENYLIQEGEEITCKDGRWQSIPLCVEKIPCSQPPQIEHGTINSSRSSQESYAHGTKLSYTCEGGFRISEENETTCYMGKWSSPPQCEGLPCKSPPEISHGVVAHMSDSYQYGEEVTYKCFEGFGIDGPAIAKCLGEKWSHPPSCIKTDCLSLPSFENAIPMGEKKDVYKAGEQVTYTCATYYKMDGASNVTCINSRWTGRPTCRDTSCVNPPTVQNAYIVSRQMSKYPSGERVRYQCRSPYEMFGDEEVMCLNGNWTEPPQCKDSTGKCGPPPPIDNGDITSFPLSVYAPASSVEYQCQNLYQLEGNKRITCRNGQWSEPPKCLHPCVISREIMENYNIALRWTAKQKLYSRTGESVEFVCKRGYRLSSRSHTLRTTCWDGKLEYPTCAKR

[6] = target: T4, GPPPPIDNGDITSFP(GGGK-biotin); experiment: ELISA: biotinylated peptide captured on immobilized Neutravidin, antibody at 0.5 µg/ml, anti-human IgG-HRP/ABTS, OD 405 nm
T4 construct: also called biotinylated 15-mer peptide; biotinylated 19-mer
T4 peptide: GPPPPIDNGDITSFPGGGK(Biotin)

[7] = target: ribonucleoprotein (RNP); experiment: AtheNA Multi-Lyte ANA, Ab at 8.35 ug/ml
[8] = target: T2, Sm (sphingomyelin); experiment: AtheNA Multi-Lyte ANA, Ab at 8.35 ug/ml
[9] = target: systemic lupus erythematosus autoantigen SSA; experiment: AtheNA Multi-Lyte ANA, Ab at 8.35 ug/ml
[10] = target: ribonucleoprotein (RNP); experiment: AtheNA Multi-Lyte ANA, Ab at 2.088 ug/ml
[11] = target: T2, Sm (sphingomyelin); experiment: AtheNA Multi-Lyte ANA, Ab at 2.088 ug/ml
[12] = target: systemic lupus erythematosus autoantigen SSA; experiment: AtheNA Multi-Lyte ANA, Ab at 2.088 ug/ml
[13] = target: ribonucleoprotein (RNP); experiment: AtheNA Multi-Lyte ANA, Ab at 4.175 ug/ml
[14] = target: T2, Sm (sphingomyelin); experiment: AtheNA Multi-Lyte ANA, Ab at 4.175 ug/ml
[15] = target: systemic lupus erythematosus autoantigen SSA; experiment: AtheNA Multi-Lyte ANA, Ab at 4.175 ug/ml
[16] = target: T5, reduced form of Complement Factor H (CFH), treated with TCEP (human, UniProt P08603 19-1231, disulfides reduced with 10 mM TCEP); experiment: immunoblot, SDS-PAGE under reducing conditions, antibody at 0.5 µg/ml, anti-human IgG-HRP, chemiluminescence; lane numbers as in Table 10
T5 construct: also called reduced CFH; reduced form of CFH
T5 sequence (P08603 19-1231 limits assumed): as above

[17] = target: ribonucleoprotein (RNP); experiment: AtheNA Multi-Lyte ANA, Ab at 3.538 ug/ml
[18] = target: T2, Sm (sphingomyelin); experiment: AtheNA Multi-Lyte ANA, Ab at 3.538 ug/ml
[19] = target: systemic lupus erythematosus autoantigen SSA; experiment: AtheNA Multi-Lyte ANA, Ab at 3.538 ug/ml
[20] = target: ribonucleoprotein (RNP); experiment: AtheNA Multi-Lyte ANA, Ab at 28.3 ug/ml
[21] = target: T2, Sm (sphingomyelin); experiment: AtheNA Multi-Lyte ANA, Ab at 28.3 ug/ml
[22] = target: systemic lupus erythematosus autoantigen SSA; experiment: AtheNA Multi-Lyte ANA, Ab at 28.3 ug/ml
[23] = target: ribonucleoprotein (RNP); experiment: AtheNA Multi-Lyte ANA, Ab at 7.075 ug/ml
[24] = target: T2, Sm (sphingomyelin); experiment: AtheNA Multi-Lyte ANA, Ab at 7.075 ug/ml
[25] = target: systemic lupus erythematosus autoantigen SSA; experiment: AtheNA Multi-Lyte ANA, Ab at 7.075 ug/ml

EC50 [1]: 0.0122 µg/mL | AtheNA signal [2]: 40 | AtheNA signal [3]: 92 | AtheNA signal [4]: 144 | binding result [5]: binds | binding result [6]: binds | AtheNA signal [7]: 38 | AtheNA signal [8]: 77 | AtheNA signal [9]: 146 | AtheNA signal [10]: 29 | AtheNA signal [11]: 45 | AtheNA signal [12]: 119 | AtheNA signal [13]: 36 | AtheNA signal [14]: 63 | AtheNA signal [15]: 140 | binding result [16]: binds
B1: Ab7979 (antibody, IgG1, V domains shown)
VH: LVESGGGVVQPGKSLRLSCVASGFTFSTYGMHWVRQAPGKGLEWVAVMSFDGKTKYYADSVKGRFTISRDNPKNTLYLQMNSLRSEDTAVYYCAKGGAAAAVFDSWGQGILLTVSS
VL: MTQSPNSLAVSLGGRATINCKTSQSILYRSNNKNYLAWYQHKPGQPPKLLIYWASTRESRVPDRFSGSGSRTDFTLTISGLQAEDVAVYYCQQYYNPPWTFGQGTKVEIK
notes: Recombinant human antibody with IgG1 heavy chain backbone and kappa light chain constant; they begin at LVESGGG and MTQSP; also called Ab7979/239i; mAb 7979

binding result [6]: binds | AtheNA signal [17]: 34 | AtheNA signal [18]: 10 | AtheNA signal [19]: 84 | AtheNA signal [20]: 56 | AtheNA signal [21]: 22 | AtheNA signal [22]: 165 | AtheNA signal [23]: 44 | AtheNA signal [24]: 12 | AtheNA signal [25]: 120
B2: Ab7970 (antibody, IgG1, V domains shown)
VH: LVESGGGVVQPGRSLRLSCAASGLTFSFYNFHWVRQTPGKGLEWVAGISYDATRTNYAGSVTGRFTISRDNSKKMLYLQMSSLGPQDTAVYHCARDRSDGQLHKVAFDSWGQGALVTVSS
VL: MTQSPDSLTLSLGERATINCRSSRTVLYRSNNKNYLAWYQHKPGQPPKLLMSWASTRETGVPDRFSGSGSGTHFTLTITSLQPEDVAVYYCQQYYSPPWTFGQGTKVEIR
notes: IgG1 heavy chain backbone and kappa constant; also called clone 18; pH007970/pK005991_6004
